From US6652861B1, “Anti-HIV and anti-tumor peptides and truncated polypeptides of MAP30” (priority 1999, dated 2003)
Where two headings read alike, the source gives them in different places.

B1: MVF21: MAP30 V8 fragment, 20-21 kDa, residues 1-187 of SEQ ID NO:1 (protein, listed as Momordica charantia)
chain: DVNFDLSTATAKTYTKFIEDFRATLPFSHKVYDIPLLYSTISDSRRFILLDLTSYAYETISVAIDVTNVYVVAYRTRDVSYFFKESPPEAYNILFKGTRKITLPYTGNYENLQTAAHKIRENIDLGLPALSSAITTLFYYNAQSAPSALLVLIQTTAEAARFKYIERHVAKYVATNFKPNLAIISLE
B2: MLF21: MAP30 Lys-C fragment, 20-21 kDa, residues 13-195 of SEQ ID NO:1 (protein, listed as Momordica charantia)
chain: TYTKFIEDFRATLPFSHKVYDIPLLYSTISDSRRFILLDLTSYAYETISVAIDVTNVYVVAYRTRDVSYFFKESPPEAYNILFKGTRKITLPYTGNYENLQTAAHKIRENIDLGLPALSSAITTLFYYNAQSAPSALLVLIQTTAEAARFKYIERHVAKYVATNFKPNLAIISLENQWSALSK
B3: MLF25: MAP30 Lys-C fragment, 24-25 kDa, residues 13-232 of SEQ ID NO:1 (protein, listed as Momordica charantia)
chain: TYTKFIEDFRATLPFSHKVYDIPLLYSTISDSRRFILLDLTSYAYETISVAIDVTNVYVVAYRTRDVSYFFKESPPEAYNILFKGTRKITLPYTGNYENLQTAAHKIRENIDLGLPALSSAITTLFYYNAQSAPSALLVLIQTTAEAARFKYIERHVAKYVATNFKPNLAIISLENQWSALSKQIFLAQNQGGKFRNPVDLIKPTGERFQVTNVDSDVVK
B4: MLF0.8: MAP30 Lys-C C-terminal fragment, residues 196-263 of SEQ ID NO:1 (protein, listed as Momordica charantia)
chain: QIFLAQNQGGKFRNPVDLIKPTGERFQVTNVDSDVVKGNIKLLLNSRASTADENFITTMTLLGESVVN
B5: MVF0.8: MAP30 V8 C-terminal fragment, residues 188-263 of SEQ ID NO:1 (protein, listed as Momordica charantia)
chain: NQWSALSKQIFLAQNQGGKFRNPVDLIKPTGERFQVTNVDSDVVKGNIKLLLNSRASTADENFITTMTLLGESVVN
B6: MVF25: MAP30 V8 fragment, 24-25 kDa, residues 1-219 of SEQ ID NO:1 (protein, listed as Momordica charantia)
chain: DVNFDLSTATAKTYTKFIEDFRATLPFSHKVYDIPLLYSTISDSRRFILLDLTSYAYETISVAIDVTNVYVVAYRTRDVSYFFKESPPEAYNILFKGTRKITLPYTGNYENLQTAAHKIRENIDLGLPALSSAITTLFYYNAQSAPSALLVLIQTTAEAARFKYIERHVAKYVATNFKPNLAIISLENQWSALSKQIFLAQNQGGKFRNPVDLIKPTGE

Experiments:
[1] = system: HIV-1; assay: Anti-HIV activity: viral core protein p24 expression in HIV-1 infected H9 T lymphocytes by RIA; type: cell-based
Description: (§1) In FIG. 3A, anti-HIV activity was assayed by HIV core protein p24 expression in H9 cells (Lee-Huang et al., 1990 and Lee-Huang et al., 1991). […] Anti-tumor activity was determined by in vitro proliferation of human breast tumor MAD-MB-231 cell by [^3H] thymidine incorporation (Lee-Huang et al., 1999) and the average control value was about 1.88×10^5 cpm/ml (FIG. 3B). In FIG. 3C, the cytotoxic effect was measured by the MTS colorimetric assay (Lee-Huang et al., 1999), and in FIG. 3D, the ribosome-inactivation activity was determined by in vitro translation of globin message in a rabbit reticulocyte lysate system (Lee-Huang et al., 1990 and Lee-Huang et al., 1991) and the average control value was about 5.8×10^4 cpm/ml. In each assay, triplicates were carried in two independent experiments, and the results are normalized to values obtained in control assays. Standard deviations are indicated by error bars.
(§2) Anti-HIV activity was determined by inhibition on the expression of viral core protein p24 expression by RIA (Lee-Huang et al., 1990; Lee-Huang et al., 1991 and Lee-Huang et al., 1999). Anti-tumor activity was determined by the effects of the peptide fragments on the growth of human breast tumor cell line MDA-MB-231 by [^3H] thymidine incorporated (Lee-Huang et al., 1999 and Rybak et al., 1994). HIV-integrase inhibition was assayed by the three specific reactions catalyzed by the integrase, namely, 3′ processing (specific cleavage of the dinucleotide GT from the viral substrate HIV-LTR U3), strand transfer (integration) and disintegration (Lee-Huang et al., 1995). Topological inactivation was measured by the conversion of supercoiled HIV-LTR DNA to relaxed and linear forms (Huang et al., 1992). Ribosome inactivation was determined by the translation of globin message in a rabbit reticulocyte lysate system (Lee-Huang et al., 1990 and Lee-Huang et al., 1991).
(§3) To analyze the structural and activity relationship of the anti-HIV proteins, each of the homogeneous proteolytic fragments was assayed for anti-HIV and anti-tumor activities. […] Anti-HIV activity was measured by viral core protein p24 expression in HIV-1 infected H9 T lymphocytes by RIA (Lee-Huang et al., 1990 and Lee-Huang et al., 1991). Anti-tumor activity was measured by proliferation of human breast tumor MDA231 cells (Lee-Huang et al., 1999 and Rybak et al., 1994). […] No significant difference in the anti-HIV and anti-tumor activities was detected between these core fragments.

[2] = system: human breast tumor cell line MDA-MB-231; assay: Anti-tumor activity: proliferation of MDA-MB-231 cells by [3H] thymidine incorporation; type: cell-based; conditions: MDA231 proliferation
Description: as §1, §2, §3

[3] = target: T1, HIV-1 integrase (Human immunodeficiency virus type 1 group M subtype B, UniProt P04585); assay: HIV-integrase inhibition (3'-processing, strand transfer, disintegration); type: biochemical; conditions: strand transfer and disintegration
T1 construct: assayed by the 3′-processing reaction of HIV-1 integrase
Description: (§4) In FIG. 4A, the inhibition on HIV-integrase was assayed by the 3′-processing reaction of HIV-1 integrase (Lee-Huang et al., 1995). This activity was assayed by specific cleavage of the dinucleotide GT from 5′-[^32P] labeled 21-mer of the HIV-U3-LTR substrate. The effect was measured by the inhibition of the formation of labeled 19-mer product by autoradiography of urea gels. […] In FIG. 4B, topological inactivation was measured by the conversion of supercoiled HIV-LTR DNA (S) into relaxed (R) and linear (L) forms by agarose gel electrophoresis (Huang et al., 1992). Samples that cause topological inactivation show L and R and no S forms.
as §2

[4] = system: supercoiled HIV-LTR DNA; assay: Topological inactivation: conversion of supercoiled HIV-LTR DNA to relaxed and linear forms; type: biochemical; conditions: supercoiled HIV-LTR into relaxed and linear forms
Description: as §4, §2

[5] = system: ribosome (rabbit reticulocyte lysate system); assay: Ribosome inactivation: translation of globin message in a rabbit reticulocyte lysate system; type: biochemical; conditions: [3H]-labelled leucine incorporation
Description: as §1, §2
The anti-HIV and anti-tumor fragments, MLF25, MLF21, MVF25, MVF21, GLF26, GLF22, GVF26, GVF22 are active in HIV-integrase inhibition as assayed by the 3′-processing (FIG. 4A), strand transfer and disintegration (data not shown) as well as in DNA topological inactivation as assayed by the conversion of supercoiled HIV-LTR into relaxed and linear forms (FIG. 4B). […] Moreover, the C-terminal regions of these proteins are required for N-glycosidase activity, but not for antiviral and anti-tumor activities.

[6] = system: endoproteinase Lys-C and Glu-C (V8); assay: Resistance to limited proteolysis with Lys-C and V8 (SDS-PAGE); conditions: Lys-C or V8, up to 24 hr
Description: MAP30 and GAP31 were subjected to proteolysis with sequencing grade endoproteinase Lys-C and Glu-C (Promega, Madison, Wis.). Lys-C cleaves at the carboxylic side of lysine (Elliott et al., 1986). Glu-C, also known as V8 protease, cleaves specifically at the carboxylic side of glutamic acid in the presence of ammonium ion (Drapeau et al., 1972). In the absence of ammonium ion, Glu-C acts at both aspartic and glutamic acids. The reaction buffers for Lys-C and V8 were 25 mM Tris-HCl, pH 7.8, 1 mM EDTA and 50 mM ammonium bicarbonate, pH 7.8 respectively.
FIGS. 1A-1D show time course SDS-PAGE patterns of Lys-C and V8 digestions of MAP30 and GAP31. Three major fragments were produced in each case. These fragments are designated MLF25, MLF21, MLF0.8 (MAP30 Lys-C Fragments of 25, 21, and 0.8 kDa, FIG. 1A), MVF25, MVF21, MVF0.8 (MAP30 V8 Fragments of 25, 21, and 0.8 kDa, FIG. 1B), GLF26, GLF22, GLF0.6 (GAP31 Lys-C Fragments of 26, 22 and 0.6 kDa, FIG. 1C), and GVF26, GVF22, GVF0.6 (GAP31 V8 Fragments of 26, 22 and 0.6 kDa, FIG. 1D). The smaller peptides are C-terminal fragments produced during proteolysis and they are sensitive to further digestion to short peptides.

Molecule | anti-HIV activity [1] | anti-HIV activity ([1]; listed as peak 3) | anti-tumor activity [2] | anti-tumor activity ([2]; listed as peak 3) | HIV-integrase inhibition [3] | DNA topological inactivation [4] | ribosome inactivation [5] | resistance to proteolysis [6]
GLF0.6: GAP31 Lys-C C-terminal fragment, residues 201-251 of SEQ ID NO:2 (LSFQIRTSGANGMFSEAVELERANGKKYYVTAVDQVKPKIALLKFVDKDPK; listed as Gelonium multiflorum) | neither anti-HIV nor anti-tumor activity | no activity was found | neither anti-HIV nor anti-tumor activity | no activity was found |  |  |  | 
GVF0.6: GAP31 V8 C-terminal fragment, residues 196-251 of SEQ ID NO:2 (NKWGKLSFQIRTSGANGMFSEAVELERANGKKYYVTAVDQVKPKIALLKFVDKDPK; listed as Gelonium multiflorum) | neither anti-HIV nor anti-tumor activity |  | neither anti-HIV nor anti-tumor activity |  |  |  |  | 
GLF26: GAP31 Lys-C fragment, 25-26 kDa, residues 11-226 of SEQ ID NO:2 | Most of the anti-HIV and anti-tumor activity |  | Most of the anti-HIV and anti-tumor activity |  | active | active | none of these fragments are active | remained intact even after 24 hr of proteolysis
GVF26: GAP31 V8 fragment, 25-26 kDa, residues 1-219 of SEQ ID NO:2 |  |  |  |  | active | active | none of these fragments are active | 
GLF22: GAP31 Lys-C fragment, 21-22 kDa, residues 11-200 of SEQ ID NO:2 | Most of the anti-HIV and anti-tumor activity |  | Most of the anti-HIV and anti-tumor activity |  | active | active | none of these fragments are active | 
GVF22: GAP31 V8 fragment, 21-22 kDa, residues 1-195 of SEQ ID NO:2 |  |  |  |  | active | active | none of these fragments are active | remained intact even after 24 hr of proteolysis
B1 |  |  |  |  | active | active | none of these fragments are active | remained intact even after 24 hr of proteolysis
B2 |  |  |  |  | active | active | none of these fragments are active | 
B3 |  |  |  |  | active | active | none of these fragments are active | remained intact even after 24 hr of proteolysis
B4 | neither anti-HIV nor anti-tumor activity |  | neither anti-HIV nor anti-tumor activity |  |  |  |  | 
B5 | neither anti-HIV nor anti-tumor activity |  | neither anti-HIV nor anti-tumor activity |  |  |  |  | 
B6 |  |  |  |  | active | active | none of these fragments are active | 
